Assay results from patent publication US20230168258A1 (UNIVERSIDAD DE MURCIA, published 2023).

What was measured:
Assay in all cases: dot-blot
[1] = molecular target: T1, human oxytocin (human, UniProt P01178 20-28)
T1 construct: only the oxytocin nonapeptide is meant; The form spotted in the dot-blot is not described; also called oxytocin of human
T1 peptide (looked up): CYIQNCPLG

[2] = molecular target: T2, horse oxytocin (horse, UniProt P01176 1-9)
T2 construct: The form spotted in the dot-blot is not described; also called oxytocin of horse
T2 peptide (looked up): CYIQNCPLG

[3] = molecular target: T3, pig oxytocin (pig, UniProt P01177 20-28)
T3 construct: only the oxytocin nonapeptide is meant; The form spotted in the dot-blot is not described; also called oxytocin of pig
T3 peptide (looked up): CYIQNCPLG

Measured: binding result

B1: monoclonal antibody P26C (antibody, V domains shown)
VH: QIQLVQSGPELKKPGETVKISCKASGYIFTNYGMNWVKQAPGKNLKWMGWINTNTGEPTYAEEFKGRFAFSLETSASIAYLKINNLKNEDTATYFCSRGGLLPLSYWGQGTLVTVSA
VL: DVVMTQTPLSLPVSLGDQASISCRSSQSLVHSNGNTYLHWFLQKPGQSPKLLIYKVSNRFSGVPDRFSGSGSGTDFTLKISRVEAEDLGVYFCSQSTHFPWTFGGGTKLEIK
notes: Mouse (BALB/c) hybridoma antibody; the isotype is stated as IgGk; It was tested as hybridoma supernatant in the ELISA; also called clone P26C; monoclonal antibody of the invention
binds: all assays above
